# Source: patent US20180251489A1
# Target: mucosa-associated lymphoid tissue lymphoma translocation protein 1 (UniProt Q9UDY8)
# Experiment: enzyme inhibition assay, 100 nM MALT1
# mucosa-associated lymphoid tissue lymphoma translocation protein 1, sequence (Q9UDY8 340-789): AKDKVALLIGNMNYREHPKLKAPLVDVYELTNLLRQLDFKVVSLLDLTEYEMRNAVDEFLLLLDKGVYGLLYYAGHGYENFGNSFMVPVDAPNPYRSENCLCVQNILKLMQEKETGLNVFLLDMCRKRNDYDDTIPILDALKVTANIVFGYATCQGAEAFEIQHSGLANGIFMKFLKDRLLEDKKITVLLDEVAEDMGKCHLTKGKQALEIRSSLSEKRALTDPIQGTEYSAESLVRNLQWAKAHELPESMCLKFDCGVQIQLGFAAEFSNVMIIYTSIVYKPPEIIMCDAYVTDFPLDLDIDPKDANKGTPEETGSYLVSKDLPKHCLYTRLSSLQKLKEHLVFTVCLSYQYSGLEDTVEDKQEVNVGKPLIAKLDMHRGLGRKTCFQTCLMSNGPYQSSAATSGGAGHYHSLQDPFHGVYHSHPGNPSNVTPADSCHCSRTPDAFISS
row,Substance,Ki
1,Benzyl ((S)-1-((S)-2-(((S)-1-fluoro-6-guanidino-2-oxohexan-3-yl)carbamoyl)-2-methylpyrrolidin-1-yl)-3-methyl-1-oxobutan-2-yl)carbamate (peptide),158 nM
2,(S)-1-((4-Cyanobenzoyl)-L-valyl)-N-((S)-1-fluoro-6-guanidino-2-oxohexan-3-yl)pyrrolidine-2-carboxamide (peptide),60 nM
3,(S)-1-((4-(tert-Butyl)benzoyl)-L-valyl)-N-((S)-1-fluoro-6-guanidino-2-oxohexan-3-yl)pyrrolidine-2-carboxamide (peptide),45 nM
4,(S)-N-((S)-1-Fluoro-6-guanidino-2-oxohexan-3-yl)-1-((2-methoxybenzoyl)-L-valyl)pyrrolidine-2-carboxamide (peptide),109 nM
5,(S)-N-((R)-1-Fluoro-6-guanidino-2-oxohexan-3-yl)-1-((4-fluorobenzoyl)-L-valyl)pyrrolidine-2-carboxamide (peptide),346 nM
6,Benzyl ((S)-2-((S)-2-(((S)-1-fluoro-6-guanidino-2-oxohexan-3-yl)carbamoyl)pyrrolidin-1-yl)-2-oxo-1-phenylethyl)carbamate (peptide),154 nM
7,(S)-1-((4-Bromo-2-fluorobenzoyl)-L-valyl)-N-((S)-1-fluoro-6-guanidino-2-oxohexan-3-yl)pyrrolidine-2-carboxamide (peptide),71 nM
8,(S)-N-((S)-1-Fluoro-6-guanidino-2-oxohexan-3-yl)-1-((4-methoxybenzoyl)-L-valyl)pyrrolidine-2-carboxamide (peptide),50 nM
9,(S)-1-((4-bromobenzoyl)-L-valyl)-N-((S)-1-fluoro-6-guanidino-2-oxohexan-3-yl)piperidine-2-carboxamide (peptide),79 nM
10,(S)-1-((2-naphthoyl)-L-valyl)-N-((S)-1-fluoro-6-guanidino-2-oxohexan-3-yl)pyrrolidine-2-carboxamide (peptide),47 nM
11,(S)-N-((S)-1-Fluoro-6-guanidino-2-oxohexan-3-yl)-1-((4-morpholinobenzoyl)-L-valyl)pyrrolidine-2-carboxamide (peptide),75 nM
12,(S)-N-((S)-1-Fluoro-6-guanidino-2-oxohexan-3-yl)-1-((phenylcarbamoyl)-L-valyl)pyrrolidine-2-carboxamide (peptide),52 nM
13,Benzyl ((S)-1-((S)-2-(((S)-1-fluoro-6-guanidino-2-oxohexan-3-yl)carbamoyl)pyrrolidin-1-yl)-3-methyl-1-oxobutan-2-yl)(methyl)carbamate (peptide),808 nM
14,(S)-1-(((3-Chlorophenyl)carbamoyl)-L-valyl)-N-((R)-1-fluoro-6-guanidino-2-oxohexan-3-yl)pyrrolidine-2-carboxamide (peptide),557 nM
15,"Benzyl ((S)-1-((2S,4S)-2-(((S)-1-fluoro-6-guanidino-2-oxohexan-3-yl)carbamoyl)-4-hydroxypyrrolidin-1-yl)-3-methyl-1-oxobutan-2-yl)carbamate (peptide)",49 nM
16,(S)-1-((4-Bromobenzoyl)-L-valyl)-N-((S)-1-fluoro-6-guanidino-2-oxohexan-3-yl)azetidine-2-carboxamide (peptide),118 nM
17,(S)-N-((S)-1-fluoro-6-guanidino-2-oxohexan-3-yl)-1-((4-(trifluoromethyl)benzoyl)-L-valyl)pyrrolidine-2-carboxamide (peptide),132 nM
18,(S)-1-((4-chlorobenzoyl)-L-valyl)-N-((S)-1-fluoro-6-guanidino-2-oxohexan-3-yl)pyrrolidine-2-carboxamide (peptide),67 nM
19,4-bromo-N-((S)-1-(((S)-1-(((S)-1-fluoro-6-guanidino-2-oxohexan-3-yl)amino)-3-hydroxy-1-oxopropan-2-yl)amino)-3-methyl-1-oxobutan-2-yl)benzamide (peptide),64 nM
20,N-((S)-1-((S)-2-(((S)-1-fluoro-6-guanidino-2-oxohexan-3-yl)carbamoyl)pyrrolidin-1-yl)-3-methyl-1-oxobutan-2-yl)isoquinoline-7-carboxamide (peptide),110 nM
21,(S)-1-((2-(3-Bromophenyl)acetyl)-L-valyl)-N-((S)-1-fluoro-6-guanidino-2-oxohexan-3-yl)pyrrolidine-2-carboxamide (peptide),46 nM
22,(S)-1-((2-Bromobenzoyl)-L-valyl)-N-((S)-1-fluoro-6-guanidino-2-oxohexan-3-yl)pyrrolidine-2-carboxamide (peptide),105 nM
23,N-((S)-1-((S)-2-(((S)-1-Fluoro-6-guanidino-2-oxohexan-3-yl)carbamoyl)pyrrolidin-1-yl)-3-methyl-1-oxobutan-2-yl)-2-methylthiazole-4-carboxamide (peptide),52 nM
24,N-((S)-1-((S)-2-(((S)-1-fluoro-6-guanidino-2-oxohexan-3-yl)carbamoyl)pyrrolidin-1-yl)-3-methyl-1-oxobutan-2-yl)-5-phenylthiazole-2-carboxamide (peptide),121 nM
25,(S)-N-((S)-1-Fluoro-6-guanidino-2-oxohexan-3-yl)-1-((3-methoxybenzoyl)-L-valyl)pyrrolidine-2-carboxamide (peptide),75 nM
26,Benzyl ((S)-1-((S)-2-(((S)-1-fluoro-6-guanidino-2-oxohexan-3-yl)carbamoyl)pyrrolidin-1-yl)-1-oxo-3-phenylpropan-2-yl)carbamate (peptide),76 nM

# These reach a lower Ki. Values come first.
row,Ki,Substance
1,43 nM,"Benzyl ((S)-1-((S)-2-(((S)-1-fluoro-6-guanidino-2-oxohexan-3-yl)carbamoyl)pyrrolidin-1-yl)-3,3-dimethyl-1-oxobutan-2-yl)carbamate (peptide)"
2,41 nM,(S)-1-((3-Bromobenzoyl)-L-valyl)-N-((S)-1-fluoro-6-guanidino-2-oxohexan-3-yl)pyrrolidine-2-carboxamide (peptide)
3,40 nM,(S)-1-(Benzoyl-L-valyl)-N-((S)-1-fluoro-6-guanidino-2-oxohexan-3-yl)pyrrolidine-2-carboxamide (peptide)
4,40 nM,"Benzyl ((S)-1-((S)-2-(((S)-1-fluoro-6-guanidino-2-oxohexan-3-yl)carbamoyl)pyrrolidin-1-yl)-3-methyl-1-oxobutan-2-yl)carbamate 2,2,2-trifluoroacetate (peptide)"
5,40 nM,N-((S)-1-((S)-2-(((S)-1-fluoro-6-guanidino-2-oxohexan-3-yl)carbamoyl)pyrrolidin-1-yl)-3-methyl-1-oxobutan-2-yl)quinoline-3-carboxamide (peptide)
6,40 nM,(S)-1-((4-Bromo-2-methylbenzoyl)-L-valyl)-N-((S)-1-fluoro-6-guanidino-2-oxohexan-3-yl)pyrrolidine-2-carboxamide (peptide)
7,39 nM,(S)-1-((3-cyanobenzoyl)-L-valyl)-N-((S)-1-fluoro-6-guanidino-2-oxohexan-3-yl)pyrrolidine-2-carboxamide (peptide)
8,38 nM,4-Bromo-N-((S)-1-(((S)-1-(((S)-1-fluoro-6-guanidino-2-oxohexan-3-yl)amino)-1-oxopropan-2-yl)amino)-3-methyl-1-oxobutan-2-yl)benzamide (peptide)
9,36 nM,(S)-1-(cinnamoyl-L-valyl)-N-((S)-1-fluoro-6-guanidino-2-oxohexan-3-yl)pyrrolidine-2-carboxamide (peptide)
10,34 nM,"(2S,4R)-1-((S)-2-(4-Bromobenzamido)-2-cyclohexylacetyl)-N-((S)-1-fluoro-6-guanidino-2-oxohexan-3-yl)-4-hydroxypyrrolidine-2-carboxamide (peptide)"
11,32 nM,4-Chlorobenzyl ((S)-1-((S)-2-(((S)-1-fluoro-6-guanidino-2-oxohexan-3-yl)carbamoyl)pyrrolidin-l-yl)-3-methyl-1-oxobutan-2-yl)carbamate (peptide)
12,30 nM,"(S)-1-(([1,1′-biphenyl]-4-carbonyl)-L-valyl)-N-((S)-1-fluoro-6-guanidino-2-oxohexan-3-yl)pyrrolidine-2-carboxamide (peptide)"
13,30 nM,"Benzyl ((2S,3R)-1-((S)-2-(((S)-1-fluoro-6-guanidino-2-oxohexan-3-yl)carbamoyl)pyrrolidin-1-yl)-3-methyl-1-oxopentan-2-yl)carbamate (peptide)"
14,28 nM,"(2S,4R)-1-((4-Bromobenzoyl)-L-valyl)-4-cyano-N-((S)-1-fluoro-6-guanidino-2-oxohexan-3-yl)pyrrolidine-2-carboxamide (peptide)"
15,27 nM,(S)-1-(((3-Chlorophenyl)carbamoyl)-L-valyl)-N-((S)-1-fluoro-6-guanidino-2-oxohexan-3-yl)pyrrolidine-2-carboxamide (peptide)
16,27 nM,2-Chlorobenzyl ((S)-1-((S)-2-(((S)-1-fluoro-6-guanidino-2-oxohexan-3-yl)carbamoyl)pyrrolidin-1-yl)-3-methyl-1-oxobutan-2-yl)carbamate (peptide)
17,24 nM,(S)-1-((4-chloro-3-cyanobenzoyl)-L-valyl)-N-((S)-1-fluoro-6-guanidino-2-oxohexan-3-yl)pyrrolidine-2-carboxamide (peptide)
18,24 nM,(S)-1-(((2-Chlorophenyl)carbamoyl)-L-valyl)-N-((S)-1-fluoro-6-guanidino-2-oxohexan-3-yl)pyrrolidine-2-carboxamide (peptide)
19,22 nM,3-Chlorobenzyl ((S)-1-((S)-2-(((S)-1-fluoro-6-guanidino-2-oxohexan-3-yl)carbamoyl)pyrrolidin-1-yl)-3-methyl-1-oxobutan-2-yl)carbamate (peptide)
20,22 nM,(S)-N-((S)-1-Fluoro-6-guanidino-2-oxohexan-3-yl)-1-((4-isopropylbenzoyl)-L-valyl)pyrrolidine-2-carboxamide (peptide)
21,13 nM,(S)-N-((S)-1-Fluoro-6-guanidino-2-oxohexan-3-yl)-1-((4-fluorobenzoyl)-L-valyl)pyrrolidine-2-carboxamide (peptide)
22,13 nM,(S)-1-((4-bromo-3-cyanobenzoyl)-L-valyl)-N-((S)-1-fluoro-6-guanidino-2-oxohexan-3-yl)pyrrolidine-2-carboxamide (peptide)
